# Earlier results in article PMC6784060.
# Biological target: Beclin-1 BH3 (Homo sapiens) (UniProt Q14457)
# Sequence of UniProt Q14457 (Q14457 107-127): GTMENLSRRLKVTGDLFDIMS
substance,measurement,value
Bcl-xL (from UniProt Q07817),Kd,1700 nM
